Experimental data from the supplement of paper PMC10899765.

Columns and labels:
Conditions in all cases: 20 nM; 72 h
MCF10A [1] = test: percent viability (nuclei count relative to siNT); higher = more viable cells
Method: (§1)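 After 72 h, cells were fixed and stained with Hoechst and anti-fibrillarin, and nucleoli per nucleus were counted with CellProfiler. Values are plate-adjusted percent effect for the one-nucleolus and 5+ nucleoli phenotypes, normalised to siNT (0%) and to the positive controls siNOL11 or siKIF11 (100%), as the mean of biological triplicates. Percent viability is the nuclei count relative to siNT.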

MCF10A [2] = test: one-nucleolus phenotype percent effect (relative to siNT 0% and siNOL11 100%); higher = more cells with one nucleolus (ribosome biogenesis inhibition)
Method: as §1

MCF10A [3] = test: 5+ nucleoli phenotype percent effect (relative to siNT 0% and siKIF11 100%); higher = more cells with five or more nucleoli
Method: as §1

| Sequence | percent viability (MCF10A [1]) [%] | one-nucleolus phenotype percent effect (MCF10A [2]) [%] | 5+ nucleoli phenotype percent effect (MCF10A [3]) [%] |
| --- | --- | --- | --- |
| GAAGGCGCUUCCCUUUAGAGCG [hsa-miR-525-3p] | 42.5 | 37.2 | -16.5 |
| AGGUGCUCCAGGCUGGCUCACA [hsa-miR-3907] | 4.87 | 27.7 | -22.2 |
| AGACACAUUUGGAGAGGGAACC [hsa-miR-642a-3p] | 90.2 | -16.3 | 16 |
| CUUAGAUUAGAGGAUAUUGUU [hsa-miR-8061] | 73.7 | -12.7 | 58.8 |
| UGCCUCCUCCGUGGCCUCAG [hsa-miR-6829-3p] | 22.7 | 0.866 | -1.77 |
| GCUCAGGGAUGAUAACUGUGCUGAGA [hsa-miR-4518] | 55.6 | -10.2 | 31.9 |
| CGCAGGGGCCGGGUGCUCACCG [hsa-miR-1909-3p] | 26.7 | 20.6 | 13.4 |
| UCACACCUGCCUCGCCCCCC [hsa-miR-1228-3p] | 64.7 | 5.12 | -13.8 |
| CUCUAGAGGGAAGCACUUUCUG [hsa-miR-526a] | 39.9 | 0.562 | -7.42 |
| UGAGGUAGUAGUUUGUGCUGUU [hsa-let-7i-5p] | 16.5 | -11.8 | 23.9 |
| GUACCUUCUGGUUCAGCUAGU [hsa-miR-4724-3p] | 82.8 | -22.1 | 19.8 |
| ACACUUGUUGGGAUGACCUGC [hsa-miR-6500-3p] | 23.8 | 22.5 | -37.8 |
| UGUAGUUGUAUUGUAUUGCCAC [hsa-miR-4703-3p] | 40.8 | 6.74 | -29.5 |
| CUUGGUUCAGGGAGGGUCCCCA [hsa-miR-659-3p] | 34.6 | 37.6 | -6.48 |
| UCUGAAUUGUAAGAGUUGUUA [hsa-miR-4680-3p] | 114 | -21.5 | 14.3 |
| UGUUUCGGGGCUCAUGGCCUGUG [hsa-miR-5705] | 136 | -18.8 | 33.2 |
| GGCUGGUCAGAUGGGAGUG [hsa-miR-6131] | 71 | -3.05 | 1.34 |
| AAGAGAACUGAAAGUGGAGCCU [hsa-miR-3925-5p] | 49.5 | -13 | -8.02 |
| UAGUGGUCAGAGGGCUUAUGA [hsa-miR-6718-5p] | 18.9 | 39.8 | -44.7 |
| UACCCAGAGCAUGCAGUGUGAA [hsa-miR-1912] | 29.7 | 39.9 | -35.1 |
| AAGUGUGCAGGGCACUGGU [hsa-miR-648] | 20.9 | 40.5 | -33.3 |
| GCCCUCUGUCACCUUGCAGACG [hsa-miR-2276-5p] | 103 | -20.8 | 60.2 |
| UGGGGGAGGAAGGACAGGCCAU [hsa-miR-7111-5p] | 15.3 | 36.7 | -6.11 |
| CUUGCCAUCCUGGUCCACUGCAU [hsa-miR-4776-3p] | 20.6 | 25.4 | -38.5 |

| Sequence | percent viability (MCF10A [1]) [%] | one-nucleolus phenotype percent effect (MCF10A [2]) [%] | 5+ nucleoli phenotype percent effect (MCF10A [3]) [%] |
| --- | --- | --- | --- |
| UGCAACGAACCUGAGCCACUGA [hsa-miR-891a] | 57.7 | -1.85 | 1.67 |
| CCUGACCCACCCCCUCCCGCAG [hsa-miR-4750-3p] | 95.7 | -19.1 | 40.4 |
| UAUGGAAAGACUUUGCCACUCU [hsa-miR-3688-3p] | 54 | -10.8 | 57.1 |
| GAAGAACUGUUGCAUUUGCCCU [hsa-miR-4511] | 121 | -30.8 | 26.2 |
| AGAAGUAACUACGGUUUUUGCA [hsa-miR-548ao-5p] | 74.5 | -16.5 | 27.5 |
| UUGAAGAGGAGGUGCUCUGUAGC [hsa-miR-4709-3p] | 28 | 29.5 | -33 |
| UGUGACUGCAUUAUGAAAAUUCU [hsa-miR-3118] | 26.7 | 20.9 | 5.27 |
| CAUUAUUACUUUUGGUACGCG [hsa-miR-126-5p] | 88.9 | -14.9 | 12.5 |
| UGGUCUGUCUCUGCCCUGGCAC [hsa-miR-6753-3p] | 21.6 | 39.6 | -4.31 |
| UCAGAACAAAUGCCGGUUCCCAGA [hsa-miR-589-3p] | 115 | -20.8 | 5.52 |
| AUUUGUGCUUGGCUCUGUCAC [hsa-miR-2113] | 98.6 | -12.4 | 9.63 |
| UUCCAGCCCUUCUAAUGGUAGG [hsa-miR-6512-3p] | 33.8 | 39.8 | -33.4 |
| UCUUACUCCCUCAGGCACUG [hsa-miR-550b-3p] | 31 | 1.54 | -5.7 |
| CCUGAGACCCUAGUUCCAC [hsa-miR-4329] | 60.7 | -7.16 | 1.67 |
| UCGACAGCACGACACUGCCUUC [hsa-miR-196b-3p] | 65.2 | 2.46 | 5.68 |
| AACACACCUGGUUAACCUCUUU [hsa-miR-329] | 46.9 | -0.532 | 4.45 |
| AGCAGAGGCAGAGAGGCUCAGG [hsa-miR-2467-3p] | 4.65 | 26.3 | -24.4 |
| GGGAGGUGUGAUCUCACACUCG [hsa-miR-3689d] | 9.66 | 24.8 | 10.8 |
| AGAGGUAGUAGGUUGCAUAGUU [hsa-let-7d-5p] | 28.7 | -18.5 | 30.8 |
| CAAACCACACUGUGGUGUUAGA [hsa-miR-497-3p] | 49.6 | -11.5 | 4.48 |
| UCCCCAACCCCUGCCCGCAG [hsa-miR-6793-3p] | 27.6 | 13.9 | -15.2 |
| AGAUGUCCAGCCACAAUUCUCG [hsa-miR-2964a-5p] | 30.3 | 39.4 | -43.9 |
| AUGGGUGAAUUUGUAGAAGGAU [hsa-miR-1262] | 27.2 | 17.3 | -20.4 |
| UGACCCCCAUGUCGCCUCUGUAG [hsa-miR-6859-3p] | 45 | 2.24 | -21.2 |
